# From the supplement of paper PMC10567573
# B1: LARP4 (parent)
# chain: WTVANMEEIKKLTTDPDLILEVLR
# Variants of: B1
# Test: protein stability index of a GFP-peptide fusion (GPS, HEK-293T) (PSI 1-6); higher = more stable
# Settings: c terminus: a fixed tail appended
# 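Note: lentivirally expressed fusions sorted by FACS into six bins by GFP to DsRed ratio, PSI derived from sequencing read proportions per bin multiplied by bin number.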
row,Variant,protein stability index
1,WTVANMEEIKKLTTDPDLNLEVLR [I19N],2.91
2,WTVANMEEIKKLTTDPDLKLEVLR [I19K],3.21
3,WTVANMEEIKKLTTDPDLPLEVLR [I19P],3.42
4,WTVANMEEIKKLTTDPDLCLEVLR [I19C],1.96
5,WTVANMEEIKKLTTDPDLVLEVLR [I19V],1.59
6,WTVANMEEIKKLTTDPDLELEVLR [I19E],3.4
7,WTVANMEEIKKLTTDPDLHLEVLR [I19H],2.82
8,WTVANMEEIKKLTTDPDLLLEVLR [I19L],2.12
9,WTVANMEEIKKLTTDPDLFLEVLR [I19F],2.18
10,WTVANMEEIKKLTTDPDLDLEVLR [I19D],3.77
11,WTVANMEEIKKLTTDMDLILEVLR [P16M],2.11
12,WTVANMEEIKKLTTDWDLILEVLR [P16W],1.43
13,WTVANMEEIKKLTTDNDLILEVLR [P16N],1.93
14,WTVANMEEIKKLTTDVDLILEVLR [P16V],1.2
15,WTVANMEEIKKLTTDRDLILEVLR [P16R],2.25
16,WTVANMEEIKKLTTDQDLILEVLR [P16Q],1.84
17,WTVANMEEIKKLTTDTDLILEVLR [P16T],1.89
18,WTVANMEEIKKLTTDSDLILEVLR [P16S],2.28
19,WTVANMEEIKKLTTDYDLILEVLR [P16Y],1.91
20,WTVANMEEIKKLTTDPDLILAVLR [E21A],2.1
21,WTVANMEEIKKLTTDPDLILCVLR [E21C],1.69
22,WTVANMEEIKKLTTDPDLILRVLR [E21R],1.92
23,WTVANMEEIKKLTTDPDLILKVLR [E21K],2.36
24,WTVANMEEIKKLTTDPDLILYVLR [E21Y],2.12

row,Variant,protein stability index
1,WTVANMEEIKKLTTDPDLILVVLR [E21V],1.86
2,WTVANMEEIKKLTTDPDLILSVLR [E21S],1.66
3,WTVANMEEIKKLTTDPDLILMVLR [E21M],2.08
4,WTVANMEEIKKLTTDPDLILPVLR [E21P],1.98
5,WTVANMEEIKKLTTDPDLILTVLR [E21T],1.9
6,WTVANMEEIKKLTTDPDLILGVLR [E21G],2.21
7,WTVANMEEIKKLTTDPDLILHVLR [E21H],1.58
8,WTVANMEEIKKLTTDPDLILIVLR [E21I],1.85
9,WTVANMEEIKKLTTDPDLILLVLR [E21L],1.48
10,WTVANMEEIKKLTTDPDLILFVLR [E21F],1.63
11,WTVANMEEIKKLTTDPDLILWVLR [E21W],2.1
12,WTVANMEEIKKLTTDPDLILNVLR [E21N],2.32
13,WTVANMEEIKKLTTDPDLILDVLR [E21D],2.31
14,WTVANMEEIKKLTTDPDLILQVLR [E21Q],1.6
15,WTVANMEEIKKLTTDPDLIFEVLR [L20F],2.15
16,WTVANMEEIKKLTTDPDLIKEVLR [L20K],3.53
17,WTVANMEEIKKLTTDPDLISEVLR [L20S],2.1
18,WTVANMEEIKKLTTDPDLIGEVLR [L20G],2.01
19,WTVANMEEIKKLTTDPDLIHEVLR [L20H],2.64
20,WTVANMEEIKKLTTDPDLIMEVLR [L20M],2.02
21,WTVANMEEIKKLTTDPDLIIEVLR [L20I],2.1
22,WTVANMEEIKKLTTDPDLINEVLR [L20N],3.24
23,WTVANMEEIKKLTTDPDLIQEVLR [L20Q],3.64
24,WTVANMEEIKKLTTDPDLIDEVLR [L20D],3.74

row,Variant,protein stability index
1,WTVANMEEIKKLTTDPDLIPEVLR [L20P],3.02
2,WTVANMEEIKKLTTDPDLIAEVLR [L20A],3.37
3,WTVANMEEIKKLTTDPDLITEVLR [L20T],2.52
4,WTVANMEEIKKLTTDPDLIVEVLR [L20V],2.19
5,WTVANMEEIKKLTTDPDLIWEVLR [L20W],2.01
6,WTVANMEEIKKLTTDPDLIYEVLR [L20Y],2.17
7,WTVANMEEIKKLTTDPDLIEEVLR [L20E],3.68
8,WTVANMEEIKKLTTDPDLIREVLR [L20R],2.38
9,WTVANMEEIKKLTTDPDLICEVLR [L20C],2.56
10,WTVANMEEIKKLTTDPDAILEVLR [L18A],2.71
11,WTVANMEEIKKLTTDPDMILEVLR [L18M],2.55
12,WTVANMEEIKKLTTDPDCILEVLR [L18C],2.34
13,WTVANMEEIKKLTTDPDWILEVLR [L18W],2.54
14,WTVANMEEIKKLTTDPDFILEVLR [L18F],1.92
15,WTVANMEEIKKLTTDPDNILEVLR [L18N],3.53
16,WTVANMEEIKKLTTDPDRILEVLR [L18R],2.87
17,WTVANMEEIKKLTTDPDQILEVLR [L18Q],3.13
18,WTVANMEEIKKLTTDPDPILEVLR [L18P],2.33
19,WTVANMEEIKKLTTDPDYILEVLR [L18Y],3.46
20,WTVANMEEIKKLTTDPDSILEVLR [L18S],3.05
21,WTVANMEEIKKLTTDPDHILEVLR [L18H],2.6
22,WTVANMEEIKKLTTDPDEILEVLR [L18E],3.67
23,WTVANMEEIKKLTTDPDDILEVLR [L18D],2.77
24,WTVANMEEIKKLTTDPDKILEVLR [L18K],2.8

row,Variant,protein stability index
1,WTVANMEEIKKLTTDPDVILEVLR [L18V],2.99
2,WTVANMEEIKKLTTDPDTILEVLR [L18T],2.26
3,WTVANMEEIKKLTTDPDGILEVLR [L18G],2.95
4,WTVANMEEIKKLTTDPDIILEVLR [L18I],2.5
5,WTVANMEEIKKLTTDPDLILEVVR [L23V],2.85
6,WTVANMEEIKKLTTDPDLILEVQR [L23Q],2.63
7,WTVANMEEIKKLTTDPDLILEVER [L23E],2.96
8,WTVANMEEIKKLTTDPDLILEVDR [L23D],4.03
9,WTVANMEEIKKLTTDPDLILEVMR [L23M],2.12
10,WTVANMEEIKKLTTDPDLILEVYR [L23Y],3.06
11,WTVANMEEIKKLTTDPDLILEVSR [L23S],3.27
12,WTVANMEEIKKLTTDPDLILEVHR [L23H],2.61
13,WTVANMEEIKKLTTDPDLILEVWR [L23W],2.96
14,WTVANMEEIKKLTTDPDLILEVNR [L23N],3.56
15,WTVANMEEIKKLTTDPDLILEVKR [L23K],3.28
16,WTVANMEEIKKLTTDPDLILEVIR [L23I],2.65
17,WTVANMEEIKKLTTDPDLILEVRR [L23R],2.47
18,WTVANMEEIKKLTTDPDLILEVPR [L23P],2.89
19,WTVANMEEIKKLTTDPDLILEVAR [L23A],2.37
20,WTVANMEEIKKLTTDPDLILEVCR [L23C],3.17
21,WTVANMEEIKKLTTDPDLILEVFR [L23F],2.46
22,WTVANMEEIKKLTTDPDLILEVTR [L23T],3.08
